Test results from PMC6026317, “Molecular elements in FGF19 and FGF21 defining KLB/FGFR activity and specificity” (Molecular Metabolism, 2018).

Key:
[1] = molecular target: T1, Soluble human FGFR1c/KLB receptor complex (FGFR1c ectodomain-Fc with soluble KLB) (human, UniProt P11362 22-376; Q86Z14 1-996); assay: AlphaScreen or HTRF; cell-free competition: biotinylated FGF21 on streptavidin donor beads, FGFR1c-Fc or FGFR4-Fc ectodomain on Protein A acceptor beads, human soluble KLB added to give the signal; 5 μg/ml heparin, 0.1% BSA; increasing doses of unlabelled protein or peptide displace biotinylated FGF21; conditions: both partners purified
T1 construct: human FGFR1c ectodomain fused to Fc, coupled to Protein A acceptor beads; human beta-Klotho (KLB) protein, called human soluble KLB; also called FGFR1/KLB complex; soluble FGFR1/KLB receptor complex; source: bought: R&D Systems (both chains)
T1 sequence (looked up) 1: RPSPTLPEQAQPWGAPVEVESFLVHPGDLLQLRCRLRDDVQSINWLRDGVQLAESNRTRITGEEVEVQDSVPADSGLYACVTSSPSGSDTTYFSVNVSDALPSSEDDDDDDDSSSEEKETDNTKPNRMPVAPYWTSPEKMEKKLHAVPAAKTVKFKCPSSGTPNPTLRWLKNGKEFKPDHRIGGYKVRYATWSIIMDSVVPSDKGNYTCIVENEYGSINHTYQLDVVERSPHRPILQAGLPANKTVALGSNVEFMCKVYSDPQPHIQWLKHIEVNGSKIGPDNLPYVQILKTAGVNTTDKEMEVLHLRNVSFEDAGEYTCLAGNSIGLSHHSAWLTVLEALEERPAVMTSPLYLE
T1 sequence (looked up) 2: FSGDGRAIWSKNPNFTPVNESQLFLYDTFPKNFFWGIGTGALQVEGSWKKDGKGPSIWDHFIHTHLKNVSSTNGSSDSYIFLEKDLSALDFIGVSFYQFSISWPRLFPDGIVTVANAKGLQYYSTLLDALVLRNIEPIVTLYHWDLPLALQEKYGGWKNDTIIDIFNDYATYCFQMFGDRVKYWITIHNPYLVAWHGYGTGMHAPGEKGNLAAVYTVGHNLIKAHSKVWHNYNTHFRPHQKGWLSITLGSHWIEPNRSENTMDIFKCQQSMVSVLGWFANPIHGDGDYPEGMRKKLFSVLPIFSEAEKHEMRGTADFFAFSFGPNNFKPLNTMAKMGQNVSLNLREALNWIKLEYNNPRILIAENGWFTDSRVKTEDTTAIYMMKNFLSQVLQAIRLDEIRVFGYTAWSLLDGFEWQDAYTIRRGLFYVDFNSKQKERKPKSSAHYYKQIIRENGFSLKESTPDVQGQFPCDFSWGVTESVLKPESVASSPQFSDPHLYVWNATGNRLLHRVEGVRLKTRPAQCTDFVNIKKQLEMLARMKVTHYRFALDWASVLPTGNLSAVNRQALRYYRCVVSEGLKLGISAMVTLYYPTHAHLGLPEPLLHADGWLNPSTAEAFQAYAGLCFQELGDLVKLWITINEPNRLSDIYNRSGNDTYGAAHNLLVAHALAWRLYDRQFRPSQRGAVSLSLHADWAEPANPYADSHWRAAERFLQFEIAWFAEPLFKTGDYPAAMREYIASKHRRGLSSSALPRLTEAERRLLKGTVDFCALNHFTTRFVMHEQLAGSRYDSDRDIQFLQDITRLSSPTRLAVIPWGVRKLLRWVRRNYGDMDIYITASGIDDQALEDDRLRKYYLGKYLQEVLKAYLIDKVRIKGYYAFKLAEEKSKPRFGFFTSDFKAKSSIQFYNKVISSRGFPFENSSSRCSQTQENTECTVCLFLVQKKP

[2] = molecular target: T2, Soluble human FGFR4/KLB receptor complex (FGFR4 ectodomain-Fc with soluble KLB) (human, UniProt P22455 22-369; Q86Z14 1-996); assay: as above; conditions: both partners purified
T2 construct: human FGFR4 ectodomain fused to Fc, coupled to Protein A acceptor beads; human beta-Klotho (KLB) protein, called human soluble KLB; also called hFGFR4/KLB; source: bought: R&D Systems (both chains)
T2 sequence (looked up) 1: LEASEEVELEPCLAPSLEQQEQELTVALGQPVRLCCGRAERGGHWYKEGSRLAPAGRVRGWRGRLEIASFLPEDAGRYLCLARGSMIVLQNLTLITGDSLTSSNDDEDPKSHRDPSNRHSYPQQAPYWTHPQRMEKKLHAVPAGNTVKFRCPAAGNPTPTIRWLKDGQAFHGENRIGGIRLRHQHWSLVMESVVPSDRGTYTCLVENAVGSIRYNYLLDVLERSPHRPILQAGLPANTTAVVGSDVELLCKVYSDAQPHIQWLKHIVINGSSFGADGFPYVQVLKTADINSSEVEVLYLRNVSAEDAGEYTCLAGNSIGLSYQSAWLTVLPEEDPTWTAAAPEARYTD
T2 sequence (looked up) 2: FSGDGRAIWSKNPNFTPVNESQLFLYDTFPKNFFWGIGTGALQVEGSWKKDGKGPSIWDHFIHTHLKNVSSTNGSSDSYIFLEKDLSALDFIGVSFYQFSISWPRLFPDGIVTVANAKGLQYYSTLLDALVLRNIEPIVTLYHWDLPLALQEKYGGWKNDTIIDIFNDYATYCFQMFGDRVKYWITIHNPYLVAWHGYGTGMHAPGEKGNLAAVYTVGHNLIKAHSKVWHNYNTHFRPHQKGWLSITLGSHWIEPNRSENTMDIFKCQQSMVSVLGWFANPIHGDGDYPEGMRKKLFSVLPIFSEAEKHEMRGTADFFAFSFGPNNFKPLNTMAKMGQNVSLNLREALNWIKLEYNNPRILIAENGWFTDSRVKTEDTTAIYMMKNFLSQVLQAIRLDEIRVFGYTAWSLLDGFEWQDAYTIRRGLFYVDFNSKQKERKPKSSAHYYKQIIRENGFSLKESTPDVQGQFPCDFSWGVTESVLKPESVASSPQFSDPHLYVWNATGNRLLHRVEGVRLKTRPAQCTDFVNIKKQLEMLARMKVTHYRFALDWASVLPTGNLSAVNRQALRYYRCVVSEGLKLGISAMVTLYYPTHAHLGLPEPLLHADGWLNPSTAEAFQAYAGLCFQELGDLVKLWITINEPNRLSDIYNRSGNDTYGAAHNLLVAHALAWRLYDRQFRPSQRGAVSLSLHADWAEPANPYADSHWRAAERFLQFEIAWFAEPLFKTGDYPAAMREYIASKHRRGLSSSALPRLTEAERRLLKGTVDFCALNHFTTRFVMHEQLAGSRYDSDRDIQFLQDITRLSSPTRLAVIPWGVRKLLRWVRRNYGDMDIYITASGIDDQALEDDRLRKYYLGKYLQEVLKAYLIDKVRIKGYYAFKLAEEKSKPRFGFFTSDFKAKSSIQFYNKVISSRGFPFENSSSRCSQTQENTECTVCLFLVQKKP

B1: Human FGF21 (1-181) (ligand, UniProt Q9NSA1 29-209, looked up)
chain: HPIPDSSPLLQFGGQVRQRYLYTDDAQQTEAHLEIREDGTVGGAADQSPESLLQLKALKPGVIQILGVKTSRFLCQRPDGALYGSLHFDPEACSFRELLLEDGYNVYQSEAHGLPLHLPGNKSPHRDPAPRGPARFLPLPGLPPALPEPPGILAPQPPDVGSSDPLSMVGPSQGRSPSYAS
notes: also called fibroblast growth factor 21; native FGF21; source: E. coli OrigamiB (DE3), purified (Ni-NTA, SUMO protease digestion, Q-Sepharose)
IC50 [1]: 123 nM
IC50 [2]: 1220 nM
